Test results from patent publication US20240245796A1 (PROFOUNDBIO US, published 2024).

Key:
[1] = biological target: T1, human FOLR1 protein, His Tag (ACRO FO1-H52H1) (human, UniProt P15328 25-233); assay: ELISA, coated hFOLR1-His, supernatant 5x
T1 construct: Bought protein coated on ELISA plates; not shown: His tag

[2] = biological target: T2, human FOLR1 extracellular domain linked to His tag (human, UniProt P15328 25-233, limits assumed); assay: BLI, global 1:1 fit (500 nM row); Table 12 run (species FOLR α panel, Hu-Ag)
T2 construct: extracellular domain; It may be the same product as m13; also called Hu-FRα; Hu-Ag; not shown: His tag
T2 sequence (P15328 25-233 limits assumed): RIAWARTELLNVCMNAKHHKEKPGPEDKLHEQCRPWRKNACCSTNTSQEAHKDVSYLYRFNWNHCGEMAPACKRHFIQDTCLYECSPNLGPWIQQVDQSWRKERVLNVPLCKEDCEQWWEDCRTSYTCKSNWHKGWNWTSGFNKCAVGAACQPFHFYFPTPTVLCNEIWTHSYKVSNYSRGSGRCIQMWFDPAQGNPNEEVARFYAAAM

[3] = biological target: T1, human FOLR1 protein, His Tag (ACRO …); assay: ELISA, coated hFOLR1-His, supernatant 25x
[4] = biological target: T3, cynomolgus FOLR1 protein, His Tag (ACRO F01-C52H8) (cynomolgus, UniProt A0A2K5U044 25-233); assay: ELISA, coated cyno FOLR1-His, supernatant 5x
T3 construct: Bought protein coated on ELISA plates; also called Cynomolgus/Rhesus macaque FOLR1, Protein, His Tag; not shown: His tag
T3 sequence (A0A2K5U044 entry or part of it): as the sequence (P15328 25-233 limits assumed) above, with I2T, W4R, R37K, A146P, H171Y counted along it

[5] = biological target: T4, human FOLR2 extracellular domain linked to His tag (human, UniProt P14207 17-230, limits assumed); assay: BLI, global 1:1 fit (62.5 nM row)
T4 construct: extracellular domain; Antigen in solution in BLI; also called Hu-FRb; not shown: His tag
T4 sequence (P14207 17-230 limits assumed): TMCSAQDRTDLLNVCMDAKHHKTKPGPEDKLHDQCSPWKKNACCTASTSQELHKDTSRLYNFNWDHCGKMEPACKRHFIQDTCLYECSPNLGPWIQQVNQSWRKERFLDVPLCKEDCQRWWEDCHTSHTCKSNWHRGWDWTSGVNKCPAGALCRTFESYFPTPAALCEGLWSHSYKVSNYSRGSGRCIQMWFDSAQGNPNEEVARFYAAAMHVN

[6] = biological target: T2, human FOLR1 extracellular domain linked …; assay: BLI, global 1:1 fit (62.5 nM row)
[7] = biological target: T5, cynomolgus monkey FOLR1 extracellular domain linked to His tag (cynomolgus monkey, UniProt A0A2K5U044 25-233); assay: BLI, Ag 31.3 nM over Ab on anti-hIgG Fc tip
T5 construct: extracellular domain; Antigen in solution in BLI; It may be the same product as m14; also called Cyno-Ag; not shown: His tag
T5 sequence (A0A2K5U044 entry or part of it): as the sequence (P15328 25-233 limits assumed) above, with I2T, W4R, R37K, A146P, H171Y counted along it

[8] = biological target: T2, human FOLR1 extracellular domain linked …; assay: BLI, Ag 31.3 nM over Ab on anti-hIgG Fc tip
[9] = biological target: T6, mouse FOLR1 extracellular domain linked to His tag (mouse, UniProt P35846 25-232, limits assumed); assay: BLI, global 1:1 fit (500 nM row); only the 500 nM response quantifiable; only the 500 nM response quantifiable; R^2 0.6807
T6 construct: extracellular domain; Antigen in solution in BLI; also called Mouse-Ag; not shown: His tag
T6 sequence (P35846 25-232 limits assumed): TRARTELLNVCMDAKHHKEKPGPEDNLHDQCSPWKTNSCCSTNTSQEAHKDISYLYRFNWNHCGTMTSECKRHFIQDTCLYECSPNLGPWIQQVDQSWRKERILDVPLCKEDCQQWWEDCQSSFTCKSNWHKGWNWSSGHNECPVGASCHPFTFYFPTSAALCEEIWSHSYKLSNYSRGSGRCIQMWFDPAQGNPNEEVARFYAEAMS

[10] = biological target: T4, human FOLR2 extracellular domain linked …; assay: BLI, global 1:1 fit (125 nM row)
[11] = biological target: T2, human FOLR1 extracellular domain linked …; assay: BLI, global 1:1 fit (125 nM row)
[12] = biological target: T5, cynomolgus monkey FOLR1 extracellular …; assay: BLI, Ag 125 nM over Ab on anti-hIgG Fc tip
[13] = biological target: T2, human FOLR1 extracellular domain linked …; assay: BLI, Ag 125 nM over Ab on anti-hIgG Fc tip
[14] = biological target: T1, human FOLR1 protein, His Tag (ACRO …); assay: ELISA, coated hFOLR1-His, supernatant 1x
[15] = biological target: T7, rat FOLR1 extracellular domain linked to His tag (rat); assay: BLI, Ag 62.5 nM; * = below range of quantification
T7 construct: extracellular domain; Antigen in solution in BLI; also called Rat-Ag

[16] = biological target: T1, human FOLR1 protein, His Tag (ACRO …); assay: ELISA, coated hFOLR1-His, HEK293 supernatant
[17] = biological target: T1, human FOLR1 protein, His Tag (ACRO …); assay: ratio of OD450 on hFOLR1 to OD450 on anti-human IgG Fc
[18] = biological target: T7, rat FOLR1 extracellular domain linked …; assay: BLI, global 1:1 fit (250 nM row); all responses below quantification
[19] = biological target: T3, cynomolgus FOLR1 protein, His Tag (ACRO …); assay: ELISA, coated cyno FOLR1-His, supernatant 1x
[20] = biological target: T4, human FOLR2 extracellular domain linked …; assay: BLI, global 1:1 fit (15.6 nM row)
[21] = biological target: T2, human FOLR1 extracellular domain linked …; assay: BLI, global 1:1 fit (15.6 nM row)
[22] = biological target: T3, cynomolgus FOLR1 protein, His Tag (ACRO …); assay: ELISA, coated cyno FOLR1-His, supernatant 25x
[23] = biological target: T2, human FOLR1 extracellular domain linked …; assay: BLI, global 1:1 fit (500 nM row); Table 11 run (FOLR family panel, Hu-FRα)

T1 sequence (P15328 25-233 limits assumed): as the sequence (P15328 25-233 limits assumed) above

B1: F131 (antibody, V domains shown)
VH: EVQLLESGGGVVQPGRSLRLSCAASGFTFSSYGMHWVRQAPGKGLEWVAVISYDGSNKYYADSVKGRFTISRANSKNTLYLQMNSLRAEDTAVYYCARPRAYYGAYGSSFDYWGQGTQVTVSS
VL: EIVMTQSPSSVSASVGDRVAITCRASQGISSWLAWYQQKPGKAPKLLIYAASSLQSGVPSRFSGSGSGTDFTLTISSLQPEDFATYYCQQSYSTPLTFGGGTKVDIK
notes: also called clone F131; F131 mAb
[1]
  OD450: 1.52 OD450
[2]
  Kd: 1.53 nM
[3]
  OD450: 1.38 OD450
[4]
  OD450: 1.27 OD450
[5]
  Kd: 142 nM
  koff: 0.0784 s⁻¹
  kon: 552000 M⁻¹ s⁻¹
[6]
  Kd: 5.3 nM
  koff: 0.0012 s⁻¹
  kon: 226000 M⁻¹ s⁻¹
[7]
  Response: 0.084
[8]
  Response: 0.0869
[9]
  Kd: 2960 nM
[10]
  Kd: 142 nM
  koff: 0.0784 s⁻¹
  kon: 552000 M⁻¹ s⁻¹
[11]
  Kd: 5.3 nM
  koff: 0.0012 s⁻¹
  kon: 226000 M⁻¹ s⁻¹
[12]
  Response: 0.177
[13]
  Response: 0.146
[14]
  OD450: 1.61 OD450
[15]
  Response: -0.00606
[16]
  OD450: 2.35 OD450
[17]
  Target binding/IgG level: 1.02
[18]
  koff: 1.03 s⁻¹
  kon: 5490 M⁻¹ s⁻¹
[19]
  OD450: 1.2 OD450
[20]
  Kd: 142 nM
  koff: 0.0784 s⁻¹
  kon: 552000 M⁻¹ s⁻¹
[21]
  Kd: 5.3 nM
  koff: 0.0012 s⁻¹
  kon: 226000 M⁻¹ s⁻¹
[22]
  OD450: 1.09 OD450
[23]
  Kd: 5.3 nM

B2: F131-LD038 (antibody, V domains shown)
VH: EVQLLESGGGVVQPGRSLRLSCAASGFTFSSYGMHWVRQAPGKGLEWVAVISYDGSNKYYADSVKGRFTISRANSKNTLYLQMNSLRAEDTAVYYCARPRAYYGAYGSSFDYWGQGTQVTVSS
VL: EIVMTQSPSSVSASVGDRVAITCRASQGISSWLAWYQQKPGKAPKLLIYAASSLQSGVPSRFSGSGSGTDFTLTISSLQPEDFATYYCQQSYSTPLTFGGGTKVDIK
modifications: drug-linker LD038 (PB038, maleimide-PEG unit-Val-Cit-PAB-exatecan) on cysteines freed by TCEP reduction; positions not given
notes: Antibody-drug conjugate of F131 (IgG1) with LD038; also called anti-huFOLR-1 conjugate F131-LD038; F131-038
[5]
  Kd: 84.4 nM
  koff: 0.0813 s⁻¹
  kon: 963000 M⁻¹ s⁻¹
[6]
  Kd: 4.79 nM
  koff: 0.00121 s⁻¹
  kon: 252000 M⁻¹ s⁻¹
[7]
  Response: 0.0702
[8]
  Response: 0.0866
[10]
  Kd: 84.4 nM
  koff: 0.0813 s⁻¹
  kon: 963000 M⁻¹ s⁻¹
[11]
  Kd: 4.79 nM
  koff: 0.00121 s⁻¹
  kon: 252000 M⁻¹ s⁻¹
[12]
  Response: 0.152
[13]
  Response: 0.158
[15]
  Response: -0.00393
[18]
  koff: 0.224 s⁻¹
[20]
  Kd: 84.4 nM
  koff: 0.0813 s⁻¹
  kon: 963000 M⁻¹ s⁻¹
[21]
  Kd: 4.79 nM
  koff: 0.00121 s⁻¹
  kon: 252000 M⁻¹ s⁻¹
